Test results from the RNAGym collection of RNA variant scans (doi:10.1021/acssynbio.7b00057).

B1: Pistol ribozyme (parent)
chain: GGGUCGUUGUUCCAUAAUCGCGUGGAUAUGGCACGCAAGUUUCUACCGGGCACCGUAAAUGUCCGACUGGAGCCGUUCGGGCGGCUAUAAACAGACCUCAGGCCCGAAGCGUGGCGGCACCUGCCGCCGGUGGUAAAAAAGAUCGGAAGAGCACACGUCU

Variants of: B1
Assay: aptazyme ON/OFF ratio, guanine; higher = stronger switching; co-transcriptional cleavage with and without guanine

| Variant | aptazyme ON/OFF ratio |
| --- | --- |
| U7C U8G U10A C12A C13A | 1.16 |
| U7C U8G U10A C12A C13U | 1.23 |
| U7C U8G U10G U11A C12U C13U | 1.23 |
| U7C U8G U10G U11A C12U C13A | 1.23 |
| U7C U8G U10G U11A C12U C13G | 1.11 |
| U7C U8G G9U U11C C12G C13A | 1.26 |
| U7C U8G G9U U11C C12G C13U | 1.35 |
| U7C U8G G9U U11C C12G C13G | 1.17 |
| U7C U8G U10A U11G C13U | 1.28 |
| U7C U8G U10A U11G C13A | 1.11 |
| U7C U8G U10A U11G C13G | 1.06 |
| U7C U8G U11C C13A | 1.3 |
| U7C U8G U11C C13U | 1.36 |
| U7C U8G U11C C13G | 1.12 |
| U7C U8G G9U U10G U11G C12A C13G | 1.05 |
| U7C U8G G9U U10G U11G C12A C13U | 1.19 |
| U7C U8G G9U U10G U11G C12A C13A | 1.1 |
| U7C U8G G9U U11G C12G C13U | 1.11 |
| U7C U8G G9U U11G C12G C13A | 1.1 |
| U7C U8G G9U U11G C12G C13G | 1.18 |
| U7C U8G U10C U11C C12U | 2.76 |
| U7C U8G U10C U11C C12G | 1.41 |
| U7C U8G U10C U11C C12A | 1.48 |
| U7C U8G U10A U11G C12U C13U | 1.17 |

| Variant | aptazyme ON/OFF ratio |
| --- | --- |
| U7C U8G U10A U11G C12U C13G | 1.08 |
| U7C U8G U10A U11G C12U C13A | 1.07 |
| U7C U8G G9U U10G U11A C12U | 1.13 |
| U7C U8G G9U U10G U11A C12G | 1.17 |
| U7C U8G U10A U11C C12A C13G | 1.05 |
| U7C U8G U10A U11C C12A C13A | 1.14 |
| U7C U8G U10A U11C C12A C13U | 1.15 |
| U7C U8G U10C U11C C12U C13A | 1.04 |
| U7C U8G U10C U11C C12U C13G | 1.23 |
| U7C U8G U10C U11C C12U C13U | 1.1 |
| U7C U8G U11A C12U C13G | 1.09 |
| U7C U8G U11A C12U C13A | 1.09 |
| U7C U8G U11A C12U C13U | 1.12 |
| U7C U8G G9U U11G C12U C13U | 1.29 |
| U7C U8G G9U U11G C12U C13G | 1.23 |
| U7C U8G G9U U11G C12U C13A | 1.32 |
| U7C U8G U11G C12G C13U | 1.05 |
| U7C U8G U11G C12G C13A | 1.07 |
| U7C U8G U11G C12G C13G | 1.08 |
| U7C U8G U10G C12U C13G | 1.23 |
| U7C U8G U10G C12U C13U | 1.37 |
| U7C U8G U10G C12U C13A | 1.27 |
| U7C U8G U10C C13A | 1.86 |
| U7C U8G U10C C13U | 1.54 |

| Variant | aptazyme ON/OFF ratio |
| --- | --- |
| U7C U8G U10C C13G | 2.71 |
| U7C U8G U10C U11C C12G C13G | 1.13 |
| U7C U8G U10C U11C C12G C13A | 1.14 |
| U7C U8G U10C U11C C12G C13U | 1.24 |
| U7C U8G U10A C13U | 1.46 |
| U7C U8G U10A C13A | 1.15 |
| U7C U8G U10A C13G | 1.15 |
| U7C U8G U10A U11A C12G C13A | 1.11 |
| U7C U8G U10A U11A C12G C13G | 1.13 |
| U7C U8G U10A U11A C12G C13U | 1.17 |
| U7C U8G G9U U11A C12A C13U | 1.21 |
| U7C U8G G9U U11A C12A C13A | 1.32 |
| U7C U8G G9U U11A C12A C13G | 1.19 |
| U7C U8G U10G U11C C12U | 1.16 |
| U7C U8G U10G U11C C12A | 1.34 |
| U7C U8G U10G U11C C12G | 1.55 |
| U7C U8G U11G C13A | 1.13 |
| U7C U8G U11G C13G | 1.07 |
| U7C U8G U11G C13U | 1.14 |
| U7C U8G U10C C12A C13U | 1.67 |
| U7C U8G U10C C12A C13G | 1.1 |
| U7C U8G U10C C12A C13A | 1.28 |
| U7C U8G U10A U11G C12A C13U | 1.12 |
| U7C U8G U10A U11G C12A C13A | 1.12 |

| Variant | aptazyme ON/OFF ratio |
| --- | --- |
| U7C U8G U10A U11G C12A C13G | 1.13 |
| U7C U8G G9U U11G C13G | 1.04 |
| U7C U8G G9U U11G C13U | 1.21 |
| U7C U8G G9U U11G C13A | 1.21 |
| U7C U8G G9U U11G C12U | 1.27 |
| U7C U8G G9U U11G C12G | 1.35 |
| U7C U8G G9U U11G C12A | 1.27 |
| U7C U8G G9U U10G U11G C12U C13A | 1.2 |
| U7C U8G G9U U10G U11G C12U C13G | 1.18 |
| U7C U8G G9U U10G U11G C12U C13U | 1.26 |
| U7C U8G U10A U11C | 1.04 |
| U7C U8G U10A U11A | 2.1 |
| U7C U8G U10A U11G | 1.35 |
| U7C U10A | 1.12 |
| U7C U8G U10A U11A C12A C13G | 1.12 |
| U7C U8G U10A U11A C12A C13A | 1.1 |
| U7C U8G U10A U11A C12A C13U | 1.18 |
| U7C U8G U10G U11G C12G C13A | 1.17 |
| U7C U8G U10G U11G C12G C13G | 1.15 |
| U7C U8G U10G U11G C12G C13U | 1.26 |
| U7C U8G U11C C12U C13A | 1.35 |
| U7C U8G U11C C12U C13G | 1.19 |
| U7C U8G U11C C12U C13U | 1.35 |
| U7C U8G U11C C12U | 1.28 |

| Variant | aptazyme ON/OFF ratio |
| --- | --- |
| U7C U8G U11C C12A | 1.35 |
| U7C U8G U11C C12G | 1.3 |
| U7C U8G G9U U10G U11C C12U | 1.09 |
| U7C U8G G9U U10G U11C C12G | 1.18 |
| U7C U8G G9U U10G U11C C12A | 1.18 |
| U7C U8G G9U U11G C12A C13G | 1.24 |
| U7C U8G G9U U11G C12A C13U | 1.21 |
| U7C U8G G9U U11G C12A C13A | 1.17 |
| U7C U8G U10G U11C C12G C13A | 1.16 |
| U7C U8G U10G U11C C12G C13U | 1.26 |
| U7C U8G U10G U11C C12G C13G | 1.18 |
| U7C U8G U10C U11G C13A | 1.39 |
| U7C U8G U10C U11G C13G | 1.1 |
| U7C U8G U10C U11G C13U | 2.15 |
| U7C U8G U10C U11G C12A C13G | 1.1 |
| U7C U8G U10C U11G C12A C13U | 1.32 |
| U7C U8G U10C U11G C12A C13A | 1.11 |
| U7C U8G U11G | 1.2 |
| U7C U8G U11A | 1.88 |
| U7C U8G U11C | 3.13 |
| U7C U8G U10A C12U C13G | 1.13 |
| U7C U8G U10A C12U C13U | 1.33 |
| U7C U8G U10A C12U C13A | 1.13 |
| U7C U8G U11A C13A | 1.07 |

| Variant | aptazyme ON/OFF ratio |
| --- | --- |
| U7C U8G U11A C13U | 1.16 |
| U7C U8G U11A C13G | 1.07 |
| U7C U8G U10C C12U C13A | 1.61 |
| U7C U8G U10C C12U C13G | 1.3 |
| U7C U8G U10C C12U C13U | 2.3 |
| U7C U8G G9U U11A C12G C13A | 1.05 |
| U7C U8G G9U U11A C12G C13G | 1.09 |
| U7C U8G G9U U11A C12G C13U | 1.08 |
| U7C U8G U10G U11C C12U C13A | 1.33 |
| U7C U8G U10G U11C C12U C13G | 1.21 |
| U7C U8G U10G U11C C12U C13U | 1.37 |
| U7C U8G U10G C13G | 1.29 |
| U7C U8G U10G C13A | 1.4 |
| U7C U8G U10G C13U | 1.35 |
| U7C U8G U10C C12A | 2.01 |
| U7C U8G U10C C12U | 1.38 |
| U7C U8G U10C C12G | 2.01 |
| U7C U8G U10A U11A C12U C13U | 1.16 |
| U7C U8G U10A U11A C12U C13A | 1.16 |
| U7C U8G U10A U11A C12U C13G | 1.12 |
| U7C U8G U10A U11C C12U C13G | 1.18 |
| U7C U8G U10A U11C C12U C13U | 1.06 |
| U7C U8G U10A U11C C12U C13A | 1.1 |
| U7C U8G U10A U11G C12A | 1.11 |

| Variant | aptazyme ON/OFF ratio |
| --- | --- |
| U7C U8G U10A U11G C12U | 1.2 |
| U7C U8G U10A U11G C12G | 1.23 |
| U7C U8G G9U U10G U11C C12G C13U | 1.08 |
| U7C U8G G9U U10G U11C C12G C13A | 1.03 |
| U7C U8G G9U U10G U11C C12G C13G | 1.07 |
| U7C U8G G9U U10G U11A C13A | 1.1 |
| U7C U8G G9U U10G U11A C13G | 1.08 |
| U7C U8G G9U U10G U11A C13U | 1.12 |
| U7C U8G U10C U11C C12A C13G | 1.14 |
| U7C U8G U10C U11C C12A C13U | 1.15 |
| U7C U8G U10C U11C C12A C13A | 1.16 |
| U7C U8G U10C U11C | 3.48 |
| U7C U8G U10C U11A | 2.93 |
| U7C U8G U10C U11G | 2 |
| U7C U8G U10G U11A C12A C13U | 1.2 |
| U7C U8G U10G U11A C12A C13G | 1.13 |
| U7C U8G U10G U11A C12A C13A | 1.11 |
| U7C U8G U10C U11A C12G C13G | 1.12 |
| U7C U8G U10C U11A C12G C13U | 1.08 |
| U7C U8G U10C U11A C12G C13A | 1.07 |
| U7C U8G G9U U10G U11A C12G C13A | 1.15 |
| U7C U8G G9U U10G U11A C12G C13U | 1.32 |
| U7C U8G G9U U10G U11A C12G C13G | 1.3 |
